Data taken from PMC1868598.

B1: human ClC-6 (hClC-6a): AAAA-hClC-6 (protein)
parent chain: MAGCRGSLCCCCRWCCCCGERETRTPEELTILGETQEEEDEILPRKDYESLDYDRCINDPYLEVLETMDNKKGRRYEAVKWMVVFAIGVCTGLVGLFVDFFVRLFTQLKFGVVQTSVEECSQKGCLALSLLELLGFNLTFVFLASLLVLIEPVAAGSGIPEVKCYLNGVKVPGIVRLRTLLCKVLGVLFSVAGGLFVEKEGPMIHSGSVVGAGLPQFQSISLRKIQFNFPYFRSDRDKRDFVSAGAAAGVAAAFGAPIGGTLFSLEEGSSFWNQGLTWKVLFCSMSATFTLNFFRSGIQFGSWGSFQLPGLLNFGEFKCSDSDKKCHLWTAMDLGFFVVMGVIGGLLGATFNCLNKRLAKYRMRNVHPKPKLVRVLESLLVSLVTTVVVFVASMVLGECRQMSSSSQIGNDSFQLQVTEDVNSSIKTFFCPNDTYNDMATLFFNPQESAILQLFHQDGTFSPVTLALFFVLYFLLACWTYGISVPSGLFVPSLLCGAAFGRLVANVLKSYIGLGHIYSGTFALIGAAAFLGGVVRMTISLTVILIESTNEITYGLPIMVTLMVAKWTGDFFNKGIYDIHVGLRGVPLLEWETEVEMDKLRASDIMEPNLTYVYPHTRIQSLVSILRTTVHHAFPVVTENRGNEKEFMKGNQLISNNIKFKKSSILTRAGEQRKRSQSMKSYPSSELRNMCDEHIASEEPAEKEDLLQQMLERRYTPYPNLYPDQSPSEDWTMEERFRPLTFHGLILRSQLVTLLVRGVCYSESQSSASQPRLSYAEMAEDYPRYPDIHDLDLTLLNPRMIVDVTPYMNPSPFTVSPNTHVSQVFNLFRTMGLRHLPVVNAVGEIVGIITRHNLTYEFLQARLRQHYQTI
B2: human ClC-6 (hClC-6a): NAA-hClC-6: N422A/N432A (protein)
parent chain: MAGCRGSLCCCCRWCCCCGERETRTPEELTILGETQEEEDEILPRKDYESLDYDRCINDPYLEVLETMDNKKGRRYEAVKWMVVFAIGVCTGLVGLFVDFFVRLFTQLKFGVVQTSVEECSQKGCLALSLLELLGFNLTFVFLASLLVLIEPVAAGSGIPEVKCYLNGVKVPGIVRLRTLLCKVLGVLFSVAGGLFVEKEGPMIHSGSVVGAGLPQFQSISLRKIQFNFPYFRSDRDKRDFVSAGAAAGVAAAFGAPIGGTLFSLEEGSSFWNQGLTWKVLFCSMSATFTLNFFRSGIQFGSWGSFQLPGLLNFGEFKCSDSDKKCHLWTAMDLGFFVVMGVIGGLLGATFNCLNKRLAKYRMRNVHPKPKLVRVLESLLVSLVTTVVVFVASMVLGECRQMSSSSQIGNDSFQLQVTEDVNSSIKTFFCPNDTYNDMATLFFNPQESAILQLFHQDGTFSPVTLALFFVLYFLLACWTYGISVPSGLFVPSLLCGAAFGRLVANVLKSYIGLGHIYSGTFALIGAAAFLGGVVRMTISLTVILIESTNEITYGLPIMVTLMVAKWTGDFFNKGIYDIHVGLRGVPLLEWETEVEMDKLRASDIMEPNLTYVYPHTRIQSLVSILRTTVHHAFPVVTENRGNEKEFMKGNQLISNNIKFKKSSILTRAGEQRKRSQSMKSYPSSELRNMCDEHIASEEPAEKEDLLQQMLERRYTPYPNLYPDQSPSEDWTMEERFRPLTFHGLILRSQLVTLLVRGVCYSESQSSASQPRLSYAEMAEDYPRYPDIHDLDLTLLNPRMIVDVTPYMNPSPFTVSPNTHVSQVFNLFRTMGLRHLPVVNAVGEIVGIITRHNLTYEFLQARLRQHYQTI
B3: human ClC-6 (hClC-6a): ANN-hClC-6: N410A (protein)
parent chain: MAGCRGSLCCCCRWCCCCGERETRTPEELTILGETQEEEDEILPRKDYESLDYDRCINDPYLEVLETMDNKKGRRYEAVKWMVVFAIGVCTGLVGLFVDFFVRLFTQLKFGVVQTSVEECSQKGCLALSLLELLGFNLTFVFLASLLVLIEPVAAGSGIPEVKCYLNGVKVPGIVRLRTLLCKVLGVLFSVAGGLFVEKEGPMIHSGSVVGAGLPQFQSISLRKIQFNFPYFRSDRDKRDFVSAGAAAGVAAAFGAPIGGTLFSLEEGSSFWNQGLTWKVLFCSMSATFTLNFFRSGIQFGSWGSFQLPGLLNFGEFKCSDSDKKCHLWTAMDLGFFVVMGVIGGLLGATFNCLNKRLAKYRMRNVHPKPKLVRVLESLLVSLVTTVVVFVASMVLGECRQMSSSSQIGNDSFQLQVTEDVNSSIKTFFCPNDTYNDMATLFFNPQESAILQLFHQDGTFSPVTLALFFVLYFLLACWTYGISVPSGLFVPSLLCGAAFGRLVANVLKSYIGLGHIYSGTFALIGAAAFLGGVVRMTISLTVILIESTNEITYGLPIMVTLMVAKWTGDFFNKGIYDIHVGLRGVPLLEWETEVEMDKLRASDIMEPNLTYVYPHTRIQSLVSILRTTVHHAFPVVTENRGNEKEFMKGNQLISNNIKFKKSSILTRAGEQRKRSQSMKSYPSSELRNMCDEHIASEEPAEKEDLLQQMLERRYTPYPNLYPDQSPSEDWTMEERFRPLTFHGLILRSQLVTLLVRGVCYSESQSSASQPRLSYAEMAEDYPRYPDIHDLDLTLLNPRMIVDVTPYMNPSPFTVSPNTHVSQVFNLFRTMGLRHLPVVNAVGEIVGIITRHNLTYEFLQARLRQHYQTI
B4: human ClC-6 (hClC-6a): AAN-hClC-6: N410A/N422A (protein)
parent chain: MAGCRGSLCCCCRWCCCCGERETRTPEELTILGETQEEEDEILPRKDYESLDYDRCINDPYLEVLETMDNKKGRRYEAVKWMVVFAIGVCTGLVGLFVDFFVRLFTQLKFGVVQTSVEECSQKGCLALSLLELLGFNLTFVFLASLLVLIEPVAAGSGIPEVKCYLNGVKVPGIVRLRTLLCKVLGVLFSVAGGLFVEKEGPMIHSGSVVGAGLPQFQSISLRKIQFNFPYFRSDRDKRDFVSAGAAAGVAAAFGAPIGGTLFSLEEGSSFWNQGLTWKVLFCSMSATFTLNFFRSGIQFGSWGSFQLPGLLNFGEFKCSDSDKKCHLWTAMDLGFFVVMGVIGGLLGATFNCLNKRLAKYRMRNVHPKPKLVRVLESLLVSLVTTVVVFVASMVLGECRQMSSSSQIGNDSFQLQVTEDVNSSIKTFFCPNDTYNDMATLFFNPQESAILQLFHQDGTFSPVTLALFFVLYFLLACWTYGISVPSGLFVPSLLCGAAFGRLVANVLKSYIGLGHIYSGTFALIGAAAFLGGVVRMTISLTVILIESTNEITYGLPIMVTLMVAKWTGDFFNKGIYDIHVGLRGVPLLEWETEVEMDKLRASDIMEPNLTYVYPHTRIQSLVSILRTTVHHAFPVVTENRGNEKEFMKGNQLISNNIKFKKSSILTRAGEQRKRSQSMKSYPSSELRNMCDEHIASEEPAEKEDLLQQMLERRYTPYPNLYPDQSPSEDWTMEERFRPLTFHGLILRSQLVTLLVRGVCYSESQSSASQPRLSYAEMAEDYPRYPDIHDLDLTLLNPRMIVDVTPYMNPSPFTVSPNTHVSQVFNLFRTMGLRHLPVVNAVGEIVGIITRHNLTYEFLQARLRQHYQTI
B5: human ClC-6 (hClC-6a): ANA-hClC-6: N410A/N432A (protein)
parent chain: MAGCRGSLCCCCRWCCCCGERETRTPEELTILGETQEEEDEILPRKDYESLDYDRCINDPYLEVLETMDNKKGRRYEAVKWMVVFAIGVCTGLVGLFVDFFVRLFTQLKFGVVQTSVEECSQKGCLALSLLELLGFNLTFVFLASLLVLIEPVAAGSGIPEVKCYLNGVKVPGIVRLRTLLCKVLGVLFSVAGGLFVEKEGPMIHSGSVVGAGLPQFQSISLRKIQFNFPYFRSDRDKRDFVSAGAAAGVAAAFGAPIGGTLFSLEEGSSFWNQGLTWKVLFCSMSATFTLNFFRSGIQFGSWGSFQLPGLLNFGEFKCSDSDKKCHLWTAMDLGFFVVMGVIGGLLGATFNCLNKRLAKYRMRNVHPKPKLVRVLESLLVSLVTTVVVFVASMVLGECRQMSSSSQIGNDSFQLQVTEDVNSSIKTFFCPNDTYNDMATLFFNPQESAILQLFHQDGTFSPVTLALFFVLYFLLACWTYGISVPSGLFVPSLLCGAAFGRLVANVLKSYIGLGHIYSGTFALIGAAAFLGGVVRMTISLTVILIESTNEITYGLPIMVTLMVAKWTGDFFNKGIYDIHVGLRGVPLLEWETEVEMDKLRASDIMEPNLTYVYPHTRIQSLVSILRTTVHHAFPVVTENRGNEKEFMKGNQLISNNIKFKKSSILTRAGEQRKRSQSMKSYPSSELRNMCDEHIASEEPAEKEDLLQQMLERRYTPYPNLYPDQSPSEDWTMEERFRPLTFHGLILRSQLVTLLVRGVCYSESQSSASQPRLSYAEMAEDYPRYPDIHDLDLTLLNPRMIVDVTPYMNPSPFTVSPNTHVSQVFNLFRTMGLRHLPVVNAVGEIVGIITRHNLTYEFLQARLRQHYQTI
B6: human ClC-6 (hClC-6a): NNA-hClC-6: N432A (protein)
parent chain: MAGCRGSLCCCCRWCCCCGERETRTPEELTILGETQEEEDEILPRKDYESLDYDRCINDPYLEVLETMDNKKGRRYEAVKWMVVFAIGVCTGLVGLFVDFFVRLFTQLKFGVVQTSVEECSQKGCLALSLLELLGFNLTFVFLASLLVLIEPVAAGSGIPEVKCYLNGVKVPGIVRLRTLLCKVLGVLFSVAGGLFVEKEGPMIHSGSVVGAGLPQFQSISLRKIQFNFPYFRSDRDKRDFVSAGAAAGVAAAFGAPIGGTLFSLEEGSSFWNQGLTWKVLFCSMSATFTLNFFRSGIQFGSWGSFQLPGLLNFGEFKCSDSDKKCHLWTAMDLGFFVVMGVIGGLLGATFNCLNKRLAKYRMRNVHPKPKLVRVLESLLVSLVTTVVVFVASMVLGECRQMSSSSQIGNDSFQLQVTEDVNSSIKTFFCPNDTYNDMATLFFNPQESAILQLFHQDGTFSPVTLALFFVLYFLLACWTYGISVPSGLFVPSLLCGAAFGRLVANVLKSYIGLGHIYSGTFALIGAAAFLGGVVRMTISLTVILIESTNEITYGLPIMVTLMVAKWTGDFFNKGIYDIHVGLRGVPLLEWETEVEMDKLRASDIMEPNLTYVYPHTRIQSLVSILRTTVHHAFPVVTENRGNEKEFMKGNQLISNNIKFKKSSILTRAGEQRKRSQSMKSYPSSELRNMCDEHIASEEPAEKEDLLQQMLERRYTPYPNLYPDQSPSEDWTMEERFRPLTFHGLILRSQLVTLLVRGVCYSESQSSASQPRLSYAEMAEDYPRYPDIHDLDLTLLNPRMIVDVTPYMNPSPFTVSPNTHVSQVFNLFRTMGLRHLPVVNAVGEIVGIITRHNLTYEFLQARLRQHYQTI
B7: human ClC-6 (hClC-6a): NAN-hClC-6: N422A (protein)
parent chain: MAGCRGSLCCCCRWCCCCGERETRTPEELTILGETQEEEDEILPRKDYESLDYDRCINDPYLEVLETMDNKKGRRYEAVKWMVVFAIGVCTGLVGLFVDFFVRLFTQLKFGVVQTSVEECSQKGCLALSLLELLGFNLTFVFLASLLVLIEPVAAGSGIPEVKCYLNGVKVPGIVRLRTLLCKVLGVLFSVAGGLFVEKEGPMIHSGSVVGAGLPQFQSISLRKIQFNFPYFRSDRDKRDFVSAGAAAGVAAAFGAPIGGTLFSLEEGSSFWNQGLTWKVLFCSMSATFTLNFFRSGIQFGSWGSFQLPGLLNFGEFKCSDSDKKCHLWTAMDLGFFVVMGVIGGLLGATFNCLNKRLAKYRMRNVHPKPKLVRVLESLLVSLVTTVVVFVASMVLGECRQMSSSSQIGNDSFQLQVTEDVNSSIKTFFCPNDTYNDMATLFFNPQESAILQLFHQDGTFSPVTLALFFVLYFLLACWTYGISVPSGLFVPSLLCGAAFGRLVANVLKSYIGLGHIYSGTFALIGAAAFLGGVVRMTISLTVILIESTNEITYGLPIMVTLMVAKWTGDFFNKGIYDIHVGLRGVPLLEWETEVEMDKLRASDIMEPNLTYVYPHTRIQSLVSILRTTVHHAFPVVTENRGNEKEFMKGNQLISNNIKFKKSSILTRAGEQRKRSQSMKSYPSSELRNMCDEHIASEEPAEKEDLLQQMLERRYTPYPNLYPDQSPSEDWTMEERFRPLTFHGLILRSQLVTLLVRGVCYSESQSSASQPRLSYAEMAEDYPRYPDIHDLDLTLLNPRMIVDVTPYMNPSPFTVSPNTHVSQVFNLFRTMGLRHLPVVNAVGEIVGIITRHNLTYEFLQARLRQHYQTI

experiment: confocal colocalisation with GFP-Rab4, transfected HeLa/COS-1; details: glycan lost; control: wild type

localisation_or_trafficking, no change:
B1
B2
B3
B4
B5
B6
B7
